The labels stand for the following.
B1: RNA polymerase II-associated protein 1 (Saccharomyces cerevisiae), P38351 (parent)
chain: MSKKQEYIAPIKYQNSLPVPQLPPKLLVYPESPETNADSSQLINSLYIKTNVTNLIQQDEDLGMPVDLMKFPGLLNKLDSKLLYGFDNVKLDKDDRILLRDPRIDRLTKTDISKVTFLRRTEYVSNTIAAHDNTSLKRKRRLDDGDSDDENLDVNHIISRVEGTFNKTDKWQHPVKKGVKMVKKWDLLPDTASMDQVYFILKFMGSASLDTKEKKSLNTGIFRPVELEEDEWISMYATDHKDSAILENELEKGMDEMDDDSHEGKIYKFKRIRDYDMKQVAEKPMTELAIRLNDKDGIAYYKPLRSKIELRRRRVNDIIKPLVKEHDIDQLNVTLRNPSTKEANIRDKLRMKFDPINFATVDEEDDEDEEQPEDVKKESEGDSKTEGSEQEGENEKDEEIKQEKENEQDEENKQDENRAADTPETSDAVHTEQKPEEEKETLQEE
partner: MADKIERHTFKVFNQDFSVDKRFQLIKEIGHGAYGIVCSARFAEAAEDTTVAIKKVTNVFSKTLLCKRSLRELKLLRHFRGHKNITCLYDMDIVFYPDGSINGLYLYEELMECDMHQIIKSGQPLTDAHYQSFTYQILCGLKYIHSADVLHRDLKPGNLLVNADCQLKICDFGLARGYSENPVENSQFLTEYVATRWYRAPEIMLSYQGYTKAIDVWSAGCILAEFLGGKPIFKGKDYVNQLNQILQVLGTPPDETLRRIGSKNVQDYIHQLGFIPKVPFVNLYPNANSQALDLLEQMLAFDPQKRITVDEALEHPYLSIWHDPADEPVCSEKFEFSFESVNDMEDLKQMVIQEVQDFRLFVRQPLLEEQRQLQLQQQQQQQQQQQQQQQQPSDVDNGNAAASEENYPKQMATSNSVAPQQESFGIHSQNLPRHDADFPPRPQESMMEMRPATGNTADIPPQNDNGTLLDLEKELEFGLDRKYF

The results in this text go back to IntAct's records for PubMed 21376235.

Variants of B1 are the subject of the assay. The settings on record: with slt2_yeast SLT2, Q00772.
Take MSKKQEYIAPIKYQNSLPVPQLPPKLLVYPESPETNADSSQLINSLYIKTNVTNLIQQDEDLGMPVDLMKFPGLLNKLDSKLLYGFDNVKLDKDDRILLRDPRIDRLTKTDISKVTFLRRTEYVSNTIAAHDNTSLKRKRRLDDGDSDDENLDVNHIISRVEGTFNKTDKWQHPVKKGVKMVKKWDLLPDAAFMDQVYFILKFMGSASLDTKEKKSLNTGIFRPVELEEDEWISMYATDHKDSAILENELEKGMDEMDDDSHEGKIYKFKRIRDYDMKQVAEKPMTELAIRLNDKDGIAYYKPLRSKIELRRRRVNDIIKPLVKEHDIDQLNVTLRNPSTKEANIRDKLRMKFDPINFATVDEEDDEDEEQPEDVKKESEGDSKTEGSEQEGENEKDEEIKQEKENEQDEENKQDENRAADTPETSDAVHTEQKPEEEKETLQEE [T191A;S193F]: the “effect of a mutation on the interaction” value is on record as “decreasing interaction”.
